Substrate in data set [1]: O=C1O[C@@H](COP(=O)(O)O)[C@H](O)[C@@H]1O
In words: purified protein. It counts as biochemical, Halalkalibacterium halodurans. Conditions: [Co/Co] form, 2.5 mM Bicine pH 8.3, 0.2 M NaCl, 1% DMSO.

Substrate in data set [2]: O=C1O[C@H](COP(=O)(O)O)[C@H](O)[C@@H]1O
Put plainly: purified protein. The class given is biochemical, Halalkalibacterium halodurans. The settings on record: [Co/Co] form, 2.5 mM Bicine pH 8.3, 0.2 M NaCl, 1% DMSO.

We go through one protein from publication PMC3298459.

B1: Bh0225 (Halalkalibacterium halodurans C-125) (protein)
chain: MSFIRTLRGDINPEELGFTYSHEHIVCRPDYWVQRQEGDLLLDDKEKSKRDVEDFKRHGGNSIVDATAVDYGRDVGAVKAISDELDVHIIGTAGFNKSFLWNAKIKEELKPIIGGQYDTFAEWIDGSTIHDLTEFVVREVEEGLEGTPWKAGQVKFGTGYNRISPLEEKTLRAVARAHHETKAPIHSHTEVGTMALEQIELLKSEGINLEHVSIGHMDRNPDPYYHEQIAKTGAFLSFDGIGKIKYAPESTRIHCILELVKKGYDQQILISGDTARKTYYKHYDYGLGLEYIIAKWIPRFISEANHRGFDGEALIHTFFVENPARCFAFKL
By Km is commonly meant the concentration of substrate that gives half-maximal velocity. By kcat is commonly meant the number of substrate molecules converted per active site and unit of time at saturation. By kcat/Km is commonly meant the turnover number divided by the Michaelis constant. For B1, in the data set “purified protein [1]”, the Km amounted to 200 ± 20 µM, the turnover number (kcat) worked out at 30 ± 1 s⁻¹ and the kcat/Km was found to be 150000 ± 15000 M⁻¹ s⁻¹. In addition, in the data set “purified protein [2]”, the Km turned out to be 240 ± 20 µM, the kcat was 24 ± 1 s⁻¹ and the specificity constant (kcat/Km) came out at 100000 ± 10000 M⁻¹ s⁻¹.
